T1: human recombinant IL-2Rβ (human, UniProt P14784 27-239, limits assumed)
T1 construct: Biotinylated and captured on streptavidin plates in the ELISA; also called IL-2Rb; IL2Rb
T1 sequence (looked up): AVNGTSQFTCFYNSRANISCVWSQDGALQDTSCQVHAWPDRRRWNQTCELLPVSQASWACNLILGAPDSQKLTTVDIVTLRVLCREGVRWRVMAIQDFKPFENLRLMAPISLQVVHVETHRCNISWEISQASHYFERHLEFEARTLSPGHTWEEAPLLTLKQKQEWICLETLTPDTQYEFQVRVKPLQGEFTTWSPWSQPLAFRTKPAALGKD

T2: recombinant Human carcinoembryonic antigen (human, UniProt P06731 35-685, limits assumed)
T2 construct: Irrelevant control protein of the ELISA, biotinylated and captured on streptavidin plates; also called irrelevant protein; CEA
T2 sequence (looked up): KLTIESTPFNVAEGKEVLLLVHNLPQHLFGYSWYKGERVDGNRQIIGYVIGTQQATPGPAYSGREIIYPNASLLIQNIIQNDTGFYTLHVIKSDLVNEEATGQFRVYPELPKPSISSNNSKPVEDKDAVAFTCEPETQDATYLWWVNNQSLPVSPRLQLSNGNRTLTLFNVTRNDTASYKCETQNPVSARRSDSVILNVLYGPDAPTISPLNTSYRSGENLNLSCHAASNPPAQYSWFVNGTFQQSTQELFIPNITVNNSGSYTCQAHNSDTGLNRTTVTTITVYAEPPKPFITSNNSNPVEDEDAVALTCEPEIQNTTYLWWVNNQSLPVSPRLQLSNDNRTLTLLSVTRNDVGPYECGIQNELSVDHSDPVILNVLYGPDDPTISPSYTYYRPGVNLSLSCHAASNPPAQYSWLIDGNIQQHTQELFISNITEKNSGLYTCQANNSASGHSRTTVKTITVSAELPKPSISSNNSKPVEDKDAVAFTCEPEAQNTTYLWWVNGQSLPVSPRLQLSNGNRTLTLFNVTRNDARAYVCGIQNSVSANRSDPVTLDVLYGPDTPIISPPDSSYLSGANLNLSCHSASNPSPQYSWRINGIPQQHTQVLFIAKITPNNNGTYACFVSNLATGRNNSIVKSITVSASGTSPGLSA

T3: human recombinant IL-2Rγ (human, UniProt P31785 23-262, limits assumed)
T3 construct: Biotinylated and captured on streptavidin plates in the ELISA; also called IL-2Rg; IL2Rg
T3 sequence (looked up): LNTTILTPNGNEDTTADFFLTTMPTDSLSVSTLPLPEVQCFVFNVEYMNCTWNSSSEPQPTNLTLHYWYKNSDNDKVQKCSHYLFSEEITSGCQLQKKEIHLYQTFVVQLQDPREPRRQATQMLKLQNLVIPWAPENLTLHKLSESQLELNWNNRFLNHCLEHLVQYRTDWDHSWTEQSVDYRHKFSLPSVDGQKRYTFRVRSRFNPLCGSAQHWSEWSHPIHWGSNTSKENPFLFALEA

B1: AL1N2-28 (bispecific antibody, human IgG1, kappa, lambda, L234A L235A)
heavy: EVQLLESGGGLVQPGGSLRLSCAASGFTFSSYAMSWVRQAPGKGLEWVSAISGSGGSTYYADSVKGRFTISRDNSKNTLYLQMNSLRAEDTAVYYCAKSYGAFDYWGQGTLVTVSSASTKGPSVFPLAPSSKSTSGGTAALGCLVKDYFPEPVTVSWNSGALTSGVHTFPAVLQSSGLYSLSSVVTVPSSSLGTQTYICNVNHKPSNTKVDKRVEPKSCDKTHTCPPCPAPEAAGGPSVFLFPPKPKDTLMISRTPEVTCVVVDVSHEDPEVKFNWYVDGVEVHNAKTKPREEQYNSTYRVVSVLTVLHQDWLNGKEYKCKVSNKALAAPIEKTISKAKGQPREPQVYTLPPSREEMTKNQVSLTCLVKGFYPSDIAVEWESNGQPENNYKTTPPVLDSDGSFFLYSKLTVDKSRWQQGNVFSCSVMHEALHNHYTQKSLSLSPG
light 1: not shown
light 2: SYVLTQPPSVSVAPGKTARITCGGNTIGSTVVHWYQQKPGQAPVLVIYFDDARPSGIPERFSGSNSGNTATLTISRVEAGDEADYYCQVWDSFGLSLAPVFGGGTKLTVLGQPKAAPSVTLFPPSSEELQANKATLVCLISDFYPGAVTVAWKADSSPVKAGVETTTPSKQSNNKYAASSYLSLTPEQWKSHRSYSCQVTHEGSTVEKTVAPTECS
notes: κλ-body: common heavy chain, kappa anti-IL2Rβ light chain (AL1), lambda anti-HER2 light chain (N2-28); also called AL1N2-28/N
B2: AL5N2-28 (bispecific antibody, human IgG1, kappa, lambda, L234A L235A)
heavy: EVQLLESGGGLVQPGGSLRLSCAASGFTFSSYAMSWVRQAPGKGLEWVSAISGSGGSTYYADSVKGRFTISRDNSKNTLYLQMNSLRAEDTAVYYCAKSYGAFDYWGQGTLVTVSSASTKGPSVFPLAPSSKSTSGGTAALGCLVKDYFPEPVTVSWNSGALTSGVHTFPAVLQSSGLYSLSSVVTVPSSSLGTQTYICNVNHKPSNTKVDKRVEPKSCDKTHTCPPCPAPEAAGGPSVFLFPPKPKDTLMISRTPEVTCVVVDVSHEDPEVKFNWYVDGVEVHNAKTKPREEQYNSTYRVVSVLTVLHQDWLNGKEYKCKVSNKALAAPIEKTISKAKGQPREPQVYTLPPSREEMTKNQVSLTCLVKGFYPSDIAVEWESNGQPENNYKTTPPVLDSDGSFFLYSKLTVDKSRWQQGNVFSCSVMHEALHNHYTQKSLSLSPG
light 1: not shown
light 2: B1 light 2
notes: κλ-body: common heavy chain, kappa anti-IL2Rβ light chain (AL5), lambda anti-HER2 light chain (N2-28); also called AL5N2-28/N
B3: AL2N2-28 (bispecific antibody, human IgG1, kappa, lambda, L234A L235A)
heavy: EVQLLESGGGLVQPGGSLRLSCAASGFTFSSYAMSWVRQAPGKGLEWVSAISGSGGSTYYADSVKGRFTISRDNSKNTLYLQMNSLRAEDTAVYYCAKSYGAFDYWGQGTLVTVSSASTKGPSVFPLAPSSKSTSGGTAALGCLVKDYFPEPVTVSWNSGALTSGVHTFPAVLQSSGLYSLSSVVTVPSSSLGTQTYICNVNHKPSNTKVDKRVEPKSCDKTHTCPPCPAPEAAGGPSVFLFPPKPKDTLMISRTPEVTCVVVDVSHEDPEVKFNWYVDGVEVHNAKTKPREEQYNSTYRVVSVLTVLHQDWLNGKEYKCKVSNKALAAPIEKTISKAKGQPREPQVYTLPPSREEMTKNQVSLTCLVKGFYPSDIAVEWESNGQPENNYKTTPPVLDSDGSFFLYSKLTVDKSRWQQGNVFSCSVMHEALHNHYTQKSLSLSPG
light 1: not shown
light 2: B1 light 2
notes: κλ-body: common heavy chain, kappa anti-IL2Rβ light chain (AL2), lambda anti-HER2 light chain (N2-28); also called AL2N2-28/N
B4: AL4N2-28 (bispecific antibody, human IgG1, kappa, lambda, L234A L235A)
heavy: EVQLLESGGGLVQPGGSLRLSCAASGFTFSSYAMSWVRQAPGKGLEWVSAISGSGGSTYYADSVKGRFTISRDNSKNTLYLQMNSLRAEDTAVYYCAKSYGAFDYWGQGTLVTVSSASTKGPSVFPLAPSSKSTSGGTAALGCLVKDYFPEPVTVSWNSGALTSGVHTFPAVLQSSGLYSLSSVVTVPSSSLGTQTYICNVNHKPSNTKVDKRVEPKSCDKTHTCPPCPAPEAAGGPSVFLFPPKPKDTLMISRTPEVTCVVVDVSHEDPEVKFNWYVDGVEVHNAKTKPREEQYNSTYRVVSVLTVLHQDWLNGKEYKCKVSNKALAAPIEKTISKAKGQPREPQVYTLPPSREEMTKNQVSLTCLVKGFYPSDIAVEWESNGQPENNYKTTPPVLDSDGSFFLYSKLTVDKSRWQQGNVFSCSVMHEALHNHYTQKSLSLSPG
light 1: DIQMTQSPSSLSASVGDRVTITCRASQSIDEYLNWYQQKPGKAPKLLIYEASKLQSGVPSRFSGSGSGTDFTLTISSLQPEDFATYYCQQDGAMDTYATFGQGTKVEIKRTVAAPSVFIFPPSDEQLKSGTASVVCLLNNFYPREAKVQWKVDNALQSGNSQESVTEQDSKDSTYSLSSTLTLSKADYEKHKVYACEVTHQGLSSPVTKSFNRGEC
light 2: B1 light 2
notes: κλ-body: common heavy chain, kappa anti-IL2Rβ light chain (AL4), lambda anti-HER2 light chain (N2-28); also called AL4N2-28/N
B5: AL3N2-28 (bispecific antibody, human IgG1, kappa, lambda, L234A L235A)
heavy: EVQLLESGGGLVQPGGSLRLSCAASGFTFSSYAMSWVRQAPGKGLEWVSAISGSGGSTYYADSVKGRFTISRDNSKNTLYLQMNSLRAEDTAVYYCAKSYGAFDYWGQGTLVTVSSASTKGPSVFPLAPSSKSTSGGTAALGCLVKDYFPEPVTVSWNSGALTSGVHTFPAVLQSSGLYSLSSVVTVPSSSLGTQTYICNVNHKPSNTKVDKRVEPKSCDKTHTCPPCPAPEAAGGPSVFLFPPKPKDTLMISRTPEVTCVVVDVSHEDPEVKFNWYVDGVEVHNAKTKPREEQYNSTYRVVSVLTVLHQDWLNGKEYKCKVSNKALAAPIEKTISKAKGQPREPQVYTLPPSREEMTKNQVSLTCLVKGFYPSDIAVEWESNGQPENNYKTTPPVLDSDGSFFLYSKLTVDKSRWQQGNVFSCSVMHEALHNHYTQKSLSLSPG
light 1: not shown
light 2: B1 light 2
notes: κλ-body: common heavy chain, kappa anti-IL2Rβ light chain (AL3), lambda anti-HER2 light chain (N2-28); also called AL3N2-28/N
B6: P1A3×P2C4 (bispecific antibody, V domains shown)
VH 1: QVQLQQWGAGLLKPSETLSLTCAVYGGSFSGYYWSWIRQPPGKGLEWIGEINHSGSTNYNPSLKSRATISVDTSKNQFSLKLSSVTAADTAVYYCATSPGGYSGGYFQHWGQGTLVTVSS
VL 1: not shown
VH 2: EVQLVQSGAEVKKPGSSVKVSCKASGYTFTNYYMHWVRQAPGQGLEWMGAIMPSRGGTSYPQKFQGRVTMTGDTSTSTVYMELSSLRSEDTAVYYCARGEYYYDSSGYYYWGQGTLVTVSS
VL 2: QSALTQPASVSGSPGQSIAISCTGTSSDIGHYDFVSWYQQHPGTAPKLIIYDINNRPSGISNRFSGSKSDNMASLTISGLQPEDEADYYCSAYTSSDTLVFGGGTKLT
notes: anti-IL-2Rβ (P2C4) in the knob arm; also called anti-IL-2Rβ×anti-IL-2Rγ bsAb; IL-2Rβ×IL-2Rγ KiH bsAb
B7: AM9N2-19 (bispecific antibody, human IgG1, kappa, lambda, L234A L235A)
heavy: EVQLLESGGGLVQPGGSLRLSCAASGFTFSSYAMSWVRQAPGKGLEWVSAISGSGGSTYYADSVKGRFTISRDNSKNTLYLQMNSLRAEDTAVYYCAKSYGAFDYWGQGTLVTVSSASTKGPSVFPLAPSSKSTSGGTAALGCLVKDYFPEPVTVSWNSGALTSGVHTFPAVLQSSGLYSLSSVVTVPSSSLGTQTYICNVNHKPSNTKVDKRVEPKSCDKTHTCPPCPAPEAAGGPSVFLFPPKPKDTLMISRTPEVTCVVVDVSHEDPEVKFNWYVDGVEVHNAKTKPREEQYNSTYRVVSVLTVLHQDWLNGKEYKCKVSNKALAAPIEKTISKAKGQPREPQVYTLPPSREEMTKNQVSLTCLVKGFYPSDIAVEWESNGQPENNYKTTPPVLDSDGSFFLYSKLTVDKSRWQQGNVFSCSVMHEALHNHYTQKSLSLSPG
light 1: not shown
light 2: QSVLTQPPSVSGAPGQRVTISCTGSSSNIENTHTVHWYQQLPGTAPKLLIYDASIRPSGVPDRFSGSKSGTSASLAITGLQAEDEADYYCQSYDWLRGAQVFGGGTKLTVLGQPKAAPSVTLFPPSSEELQANKATLVCLISDFYPGAVTVAWKADSSPVKAGVETTTPSKQSNNKYAASSYLSLTPEQWKSHRSYSCQVTHEGSTVEKTVAPTECS
notes: κλ-body: common heavy chain, kappa anti-IL2Rγ light chain (AM9), lambda anti-HER2 light chain (N2-19); also called AM9N2-19/N
B8: AM11N2-19 (bispecific antibody, human IgG1, kappa, lambda, L234A L235A)
heavy: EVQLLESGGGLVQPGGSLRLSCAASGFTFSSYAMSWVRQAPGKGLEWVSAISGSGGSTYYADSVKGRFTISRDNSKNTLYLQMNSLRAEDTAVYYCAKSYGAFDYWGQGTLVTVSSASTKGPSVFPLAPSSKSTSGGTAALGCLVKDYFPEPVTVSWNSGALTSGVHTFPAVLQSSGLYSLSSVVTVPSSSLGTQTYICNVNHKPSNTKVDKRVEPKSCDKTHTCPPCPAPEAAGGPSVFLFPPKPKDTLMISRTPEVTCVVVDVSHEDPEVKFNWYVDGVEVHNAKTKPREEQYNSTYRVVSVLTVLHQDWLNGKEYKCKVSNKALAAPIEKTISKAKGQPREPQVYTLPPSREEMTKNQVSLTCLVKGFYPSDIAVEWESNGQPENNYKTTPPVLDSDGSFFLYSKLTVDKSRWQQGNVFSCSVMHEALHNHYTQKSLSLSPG
light 1: EIVLTQSPGTLSLSPGERATLSCRASQNVNHNFLTWYQQKPGQAPRLLIYSASARATGIPDRFSGSGSGTDFTLTISRLEPEDFAVYYCQQFNYAPLTFGQGTKVEIKRTVAAPSVFIFPPSDEQLKSGTASVVCLLNNFYPREAKVQWKVDNALQSGNSQESVTEQDSKDSTYSLSSTLTLSKADYEKHKVYACEVTHQGLSSPVTKSFNRGEC
light 2: B7 light 2
notes: κλ-body: common heavy chain, kappa anti-IL2Rγ light chain (AM11), lambda anti-HER2 light chain (N2-19); also called AM11N2-19/N
B9: AM10N2-19 (bispecific antibody, human IgG1, kappa, lambda, L234A L235A)
heavy: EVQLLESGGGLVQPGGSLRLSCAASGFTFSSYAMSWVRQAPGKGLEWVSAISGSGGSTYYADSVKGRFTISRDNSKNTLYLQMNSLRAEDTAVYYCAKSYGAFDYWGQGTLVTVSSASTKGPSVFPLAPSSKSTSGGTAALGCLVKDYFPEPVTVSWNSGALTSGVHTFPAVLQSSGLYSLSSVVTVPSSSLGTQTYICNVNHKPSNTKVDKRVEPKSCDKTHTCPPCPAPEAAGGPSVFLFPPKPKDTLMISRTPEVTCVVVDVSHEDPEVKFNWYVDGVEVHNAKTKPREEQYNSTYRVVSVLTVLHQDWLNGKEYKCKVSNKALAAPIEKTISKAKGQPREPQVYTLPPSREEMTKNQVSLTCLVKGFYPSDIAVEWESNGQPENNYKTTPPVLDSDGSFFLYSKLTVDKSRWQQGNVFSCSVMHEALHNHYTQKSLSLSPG
light 1: not shown
light 2: B7 light 2
notes: κλ-body: common heavy chain, kappa anti-IL2Rγ light chain (AM10), lambda anti-HER2 light chain (N2-19); also called AM10N2-19/N
B10: AL4O30 (bispecific antibody, human IgG1, kappa, lambda, L234A L235A)
heavy: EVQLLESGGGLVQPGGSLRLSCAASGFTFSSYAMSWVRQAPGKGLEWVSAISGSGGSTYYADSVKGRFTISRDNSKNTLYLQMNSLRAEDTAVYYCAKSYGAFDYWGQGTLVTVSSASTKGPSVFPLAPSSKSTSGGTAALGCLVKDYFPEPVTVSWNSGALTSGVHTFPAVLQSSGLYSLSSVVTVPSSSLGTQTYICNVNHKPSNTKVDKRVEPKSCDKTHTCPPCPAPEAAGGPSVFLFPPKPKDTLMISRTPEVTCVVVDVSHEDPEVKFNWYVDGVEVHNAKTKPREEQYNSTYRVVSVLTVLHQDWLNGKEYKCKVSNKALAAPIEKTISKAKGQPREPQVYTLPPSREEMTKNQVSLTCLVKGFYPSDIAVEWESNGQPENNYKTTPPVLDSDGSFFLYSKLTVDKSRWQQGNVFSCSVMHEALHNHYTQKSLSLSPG
light 1: B4 light 1
light 2: not shown
notes: κλ-body: common heavy chain, kappa anti-IL2Rβ light chain (AL4), lambda anti-MSLN light chain (O30); also called AL4O30/N
B11: AL4O38 (bispecific antibody, human IgG1, kappa, lambda, L234A L235A)
heavy: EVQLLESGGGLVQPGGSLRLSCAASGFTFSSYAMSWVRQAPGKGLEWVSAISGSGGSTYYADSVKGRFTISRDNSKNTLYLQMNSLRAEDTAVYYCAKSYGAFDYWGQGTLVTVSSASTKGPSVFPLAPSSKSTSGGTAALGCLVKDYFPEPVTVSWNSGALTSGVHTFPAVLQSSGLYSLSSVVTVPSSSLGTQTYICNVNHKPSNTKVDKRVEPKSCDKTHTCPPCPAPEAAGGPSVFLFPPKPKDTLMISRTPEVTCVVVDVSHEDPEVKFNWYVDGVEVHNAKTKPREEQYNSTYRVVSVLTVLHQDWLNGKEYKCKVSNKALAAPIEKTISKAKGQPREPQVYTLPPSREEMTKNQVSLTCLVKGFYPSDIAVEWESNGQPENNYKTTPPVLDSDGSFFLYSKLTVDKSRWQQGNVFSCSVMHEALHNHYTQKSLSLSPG
light 1: B4 light 1
light 2: QPVLTQPASLSASPGASASLTCTLRSGINVRDYRIFWYQQKPGSPPQYLLRYKSASDKQQGSGVPSRFSGSKDASANAGILLISGLQSEDEADYYCMIWHHDSEGHAFVFGGGTKLTVLGQPKAAPSVTLFPPSSEELQANKATLVCLISDFYPGAVTVAWKADSSPVKAGVETTTPSKQSNNKYAASSYLSLTPEQWKSHRSYSCQVTHEGSTVEKTVAPTECS
notes: κλ-body: common heavy chain, kappa anti-IL2Rβ light chain (AL4), lambda anti-MSLN light chain (O38); also called AL4O38/N
B12: AL4O41 (bispecific antibody, human IgG1, kappa, lambda, L234A L235A)
heavy: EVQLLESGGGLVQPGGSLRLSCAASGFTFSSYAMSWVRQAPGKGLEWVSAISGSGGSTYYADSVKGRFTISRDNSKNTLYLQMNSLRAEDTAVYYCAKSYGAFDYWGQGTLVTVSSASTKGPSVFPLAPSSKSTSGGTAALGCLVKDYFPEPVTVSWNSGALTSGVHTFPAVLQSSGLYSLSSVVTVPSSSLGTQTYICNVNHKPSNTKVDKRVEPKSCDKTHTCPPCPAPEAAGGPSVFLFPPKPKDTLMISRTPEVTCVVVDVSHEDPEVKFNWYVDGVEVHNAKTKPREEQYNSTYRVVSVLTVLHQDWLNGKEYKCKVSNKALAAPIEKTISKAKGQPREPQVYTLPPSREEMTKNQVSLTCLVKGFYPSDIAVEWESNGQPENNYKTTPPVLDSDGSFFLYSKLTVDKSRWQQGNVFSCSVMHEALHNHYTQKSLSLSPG
light 1: B4 light 1
light 2: SYVLTQPPSVSVAPGKTARITCGGNKIGHRAVHWYQQKPGQAPVLVIYYTYERPSGIPERFSGSNSGNTATLTISRVEAGDEADYYCQVWDWYSEGGVVFGGGTKLTVLGQPKAAPSVTLFPPSSEELQANKATLVCLISDFYPGAVTVAWKADSSPVKAGVETTTPSKQSNNKYAASSYLSLTPEQWKSHRSYSCQVTHEGSTVEKTVAPTECS
notes: κλ-body: common heavy chain, kappa anti-IL2Rβ light chain (AL4), lambda anti-MSLN light chain (O41); also called AL4O41/N
B13: AL4O35 (bispecific antibody, human IgG1, kappa, lambda, L234A L235A)
heavy: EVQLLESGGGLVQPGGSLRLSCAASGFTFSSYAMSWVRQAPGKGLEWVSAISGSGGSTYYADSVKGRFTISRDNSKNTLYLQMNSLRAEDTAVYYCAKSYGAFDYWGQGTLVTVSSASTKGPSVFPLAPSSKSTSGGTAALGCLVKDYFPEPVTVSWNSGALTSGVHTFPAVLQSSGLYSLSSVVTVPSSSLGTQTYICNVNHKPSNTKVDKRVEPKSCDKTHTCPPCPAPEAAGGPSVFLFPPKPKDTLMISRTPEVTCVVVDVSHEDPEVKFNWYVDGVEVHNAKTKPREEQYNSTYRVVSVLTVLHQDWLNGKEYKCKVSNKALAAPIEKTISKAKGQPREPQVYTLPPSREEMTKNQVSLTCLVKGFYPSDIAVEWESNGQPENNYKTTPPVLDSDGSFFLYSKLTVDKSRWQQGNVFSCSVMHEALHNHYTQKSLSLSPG
light 1: B4 light 1
light 2: QPVLTQPVSLSASPGASVSLTCTLRSDIRVRDYRIFWYQQKPGSPPQYLLRYKTDSDKQQGSGVPSRFSGSKDASANAGILLISGLQSEDEADYYCMIWHRTTGTSLVFGGGTKLTVLGQPKAAPSVTLFPPSSEELQANKATLVCLISDFYPGAVTVAWKADSSPVKAGVETTTPSKQSNNKYAASSYLSLTPEQWKSHRSYSCQVTHEGSTVEKTVAPTECS
notes: κλ-body: common heavy chain, kappa anti-IL2Rβ light chain (AL4), lambda anti-MSLN light chain (O35); also called AL4O35/N

What was measured:
Experiment in all cases: direct ELISA, biotinylated recombinant protein on streptavidin plates
[1] = target: T4, human recombinant HER2 (human, UniProt P04626 23-652)
T4 construct: Biotinylated and captured on streptavidin plates in the ELISA; also called human epidermal growth factor receptor 2

[2] = target: T1, human recombinant IL-2Rβ
[3] = target: T2, recombinant Human carcinoembryonic …
[4] = target: T3, human recombinant IL-2Rγ

binding result [1] | binding result [2] | binding result [3] | binding result [4] | Binder
binds | binds |  |  | B1
binds | binds |  |  | B2
binds | binds |  |  | B3
binds | binds |  |  | B4
binds | binds |  |  | B5
 | binds | no binding | binds | B6
binds |  |  | binds | B7
binds |  |  | binds | B8
binds |  |  | binds | B9
 | binds |  |  | B10
 | binds |  |  | B11
 | binds |  |  | B12
 | binds |  |  | B13

From patent publication US20230295348A1 (NOVIMMUNE, published 2023)
